Measured values from the RNAGym collection of RNA variant scans (doi:10.1073/pnas.2313332121).

B1: TPR t1 (parent)
chain: GACCAAUCUGCCCUCAGAGCUCGAGAACAUCUUCGGAUGCAGAGGAGGCAGGCUUCGGUGGCGCGAUAGCGCCAACGUCCUCAACCUCCAAUGCAUCCCACCACAUGAUGAUGCCUGAAGAGCCUUGGUUUUUUG

Variants of: B1
Assay: polymerase ribozyme fitness, log enrichment relative to wild type (log ratio); higher = more active; in vitro selection for triplet polymerase activity
In short: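 Only genotypes with ≥10 input reads and ≥1 read per output were kept after Illumina sequencing of input and output libraries. These libraries were PCR-built, transcribed mutants of each subunit of a heterodimeric triplet polymerase ribozyme, each put through one triplicate in vitro selection round with frozen incubation at −7 °C, gel excision of extended constructs, streptavidin-bead capture and RT-PCR. Fitness is a logarithmic ratio of genotype enrichment to wild-type enrichment, from inverse-variance-weighted replicate averages, with the logarithm in base 2.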

Row | Variant | polymerase ribozyme fitness (log ratio)
1 | C12G G36A C53A A74G C89U | -1.5
2 | C12G C53A G57U G60U C94U G107U | -6.32
3 | C12G U55A C56G G63A U81C | -2.01
4 | C12U C15U C72A A121U | 1.3
5 | C12A G65U G110A U131G G135U | -7.22
6 | C12A U14G U81C G93C A119U G120C | -0.255
7 | C12G U109A | -4.88
8 | C12G G63A C115G G117U | -4.35
9 | C12U A46C C53G U106A | -0.663
10 | C12A G48U G71C | -1.56
11 | C12G C56U A74G G77C | -1.66
12 | C12U C13G C82A G117A | -2.59
13 | C12G A29U U55G C62U C102U G117A | -4.8
14 | C12G G57C | -0.0296
15 | C12G C49A G77C | -0.254
16 | C12U A37C C94G G110A | -3.55
17 | C12U A37U G69A G128U | -5.83
18 | C12A U38C G44A C56G G93A C104G G110U | -7.49
19 | C12U A46C A100G | -3.74
20 | C12G C62U A105C | -2.46
21 | C12U A37C G113A C123G | 0.27
22 | C12U C15U G61C C104U | -1.43
23 | C12G A43C G48A | -2.3
24 | C12A G51A C62U U96A | -5.39

Row | Variant | polymerase ribozyme fitness (log ratio)
25 | C12A G69A A90U U109A C115A | -7.7
26 | C12G U132A | -0.729
27 | C12A G63U | -2.42
28 | C12A G63C | -1.33
29 | C12A G63A | -1.5
30 | C12U C13G A37U U54G C73U C123U | 1.09
31 | C12G G60U G61C C88A U112A A119G | -3.63
32 | C12G A29U G117A | -2
33 | C12U A27U C40A U78G U109A C123U U130C | -3.99
34 | C12A U54C C115U | -2.47
35 | C12G C102U A119G C124U U125A | -0.278
36 | C12G C62G | -1.6
37 | C12G U55C A90C | -1.45
38 | C12G C64A G122A | -6.12
39 | C12G C22A C49A U55A C56U C62G G93U | -7.34
40 | C12U A75U | 0.0801
41 | C12A G110U | -1.4
42 | C12A G61U U109G | -7.2
43 | C12G U96C | 0.043
44 | C12G C15G C123U | -1.81
45 | C12G U21G A111U | -3.89
46 | C12U A84C | 0.463
47 | C12A U32A C34G C102U | -6.82
48 | C12G G52A G61C C88U G120U | -3.61

Row | Variant | polymerase ribozyme fitness (log ratio)
49 | C12G A75U | 0.372
50 | C12U A18U G19C G35A G48A C72A U112A | -6.64
51 | C12G C49G C72A C89U C102A | -1.91
52 | C12U C20U U21A G25U A43U C56A C115A A121U U130A | -8.29
53 | C12G A74C C89A | -1.6
54 | C12G G39A C82G C114U | -3.7
55 | C12G C53U G60C C89U C102U C104U | -2.28
56 | C12A G135U | -1.23
57 | C12U A16U C22G C99U | -3.39
58 | C12G G35A A37U G63C | -5.96
59 | C12U A37C A46U C62A | -2.96
60 | C12A U92G G128A | -5.4
61 | C12U A16G C20U A84U U112G G113U | -0.951
62 | C12U A26U G39C G110A | -5.25
63 | C12A U14G C72U U81C G93C A119U G120C | -0.415
64 | C12U A26G C56U C72U G117A U125G | -2.09
65 | C12G A29U | -1.54
66 | C12G A29C | -1.57
67 | C12U A66U C123A | 0.936
68 | C12G A46U C49A A95C | -2.16
69 | C12G G39U C53G | -0.932
70 | C12U C20A C22G U112A | -3.37
71 | C12G C73A | 0.691
72 | C12G C73U | -0.295

Row | Variant | polymerase ribozyme fitness (log ratio)
73 | C12G C49G | -0.51
74 | C12G C56A C82A | -0.693
75 | C12U C15U G17A A83C C85A G117U | -2.34
76 | C12G G44A G63A U112G G122U G135U | -2.91
77 | C12U A43U G77A C85U U112A | -0.51
78 | C12G G47U C94G G128A | -4.93
79 | C12G C13U C20A C40A C56U C114U C115A | -3.7
80 | C12G C123A U126C | 0.201
81 | C12G G61U | 0.811
82 | C12G G61A | 0.388
83 | C12A U87A | -0.82
84 | C12G G122A | -0.383
85 | C12G C89U C97A G113C | -6.48
86 | C12G C62G C115U | -3.7
87 | C12U A41G | 0.638
88 | C12G A50U C73U | -0.885
89 | C12G C28U G71U C124U | -0.951
90 | C12G C70A A118G | -0.792
91 | C12A U109A | -5.14
92 | C12G G69C C82U C98U A119G | -0.598
93 | C12G C64U A75U U116G G122A C124G | 0.593
94 | C12G C40U G47C C79U C82G C123A U130C | -2.93
95 | C12U A37C G45A G63U | -1.7
96 | C12G C40G C62U | -0.941

Row | Variant | polymerase ribozyme fitness (log ratio)
97 | C12U A29U | -2.12
98 | C12U A29G | -1.25
99 | C12U A37G A95G | -0.754
100 | C12U A50U U59G G63A A119U | -2.52
101 | C12U C13U C76A C114G | -3.72
102 | C12G U21A C31U G60C U87C A95G G120U U133A | -4.31
103 | C12A G113C U126C | -3.59
104 | C12G A46G C53G A95G A119G | 0.414
105 | C12G G45A A84C U106G | -1.76
106 | C12G A27G A68G | -4.94
107 | C12G G135U | -0.927
108 | C12G C20U A66U G69A | -5.04
109 | C12U A41U A46C G48A C72U C88A C102U C114G C115U | -8.1
110 | C12G G35U C70U A74C C123G | -5.14
111 | C12G A100C | -0.741
112 | C12U A43C C72A A90U | -0.685
113 | C12G G47U C64U | -1.58
114 | C12A U92A C97G C123G G128U | -6.73
115 | C12U A29U C53G A74U | -2.34
116 | C12G C15U C62A | -1.99
117 | C12G U30G C72G C101A U106A A119U C123U | -5.26
118 | C12U A26U C34A G63A A90C C104U G113C | -6.57
119 | C12G U78C A111U | -3.23
120 | C12G C15G G51U C73A G117U | -2.07

Row | Variant | polymerase ribozyme fitness (log ratio)
121 | C12U A27C C49A G61A U106A C115U | -4.69
122 | C12G C28U C124U | -0.261
123 | C12G C13A G36A G47C C86U C114G | -6.13
124 | C12G C20A G69A C79U C123U | -5.46
125 | C12G A24G A41U G57C G110A | -5.76
126 | C12G G51U | -2.93
127 | C12G G120U G127U | 1.47
128 | C12G A66C | -0.578
129 | C12G G36C C114A G120A | -2.67
130 | C12G A46U C49A | -1.36
131 | C12U A26U C28U C72U C123G | -5.39
132 | C12U C15U A90G A100C | -1.2
133 | C12A U59G | -0.837
134 | C12A U59C | -0.85
135 | C12A G77A | -0.669
136 | C12U A37U | 0.327
137 | C12U A37C | -0.693
138 | C12G G63U A66U G120U G127U | -0.34
139 | C12G A43U G45C C73A U78A U92G | -2.67
140 | C12U C20A | -1.94
141 | C12G C34A A41C G71C C79A | -6.92
142 | C12G A26C G60U A121U C124A U131G | -3.72
143 | C12G U14C C85U C86U | -1.22
144 | C12G C34A C62U | -2.32

Row | Variant | polymerase ribozyme fitness (log ratio)
145 | C12G A18C C88U | -2.16
146 | C12G G71U G77A | -0.248
147 | C12G C15A A50C | -2.29
148 | C12A U32C G45A U132A | -1.76
149 | C12U A27G C70U C88A C123G U126A | -2.52
150 | C12G G71A | 0.0302
151 | C12G A16C C64U | -2.46
152 | C12G A16U U55C U78C A108G C123U | -3.68
153 | C12U A26G C64A C73U G110C | -5.13
154 | C12G G42A G57C C72U U125C | -4.98
155 | C12G C101G G110U | -5.05
156 | C12G U38G G44U U78A | -1.53
157 | C12G G69U | 0.711
158 | C12U A24G G36A | -1.4
159 | C12G C76A U116A | -3.37
160 | C12A U112A | 1.18
161 | C12G U14A C62A C86A C102A G120C U129A | -7.34
162 | C12G A100C G113U | -5.35
163 | C12U C13G C49U C53U G127A | -3.32
164 | C12G C73U C97A | -4.85
165 | C12U A50U C115U | -3.47
166 | C12A U21A A46C C73A U87G | -0.648
167 | C12A G120C | 0.84
